{
  "source": "paper PMC11865311",
  "biological_target": "CD11b (alpha subunit of the Mac-1 receptor, CD11b/CD18) (human (endogenous in neutrophils)) (UniProt P11215)",
  "data": [
    {"substance": "Candida albicans secreted aspartyl protease 6 (Sap6) (from UniProt Q5AC08 19-418) (enzyme)", "values": [
      {"measurement": "ROS production after PMA in neutrophils incubated with Sap6 1200 ng/ml with CD11b blocked by an antibody, relative to PMA-stimulated control neutrophils (50% without the blockade)", "result": 85, "unit": "%"}
    ]}
  ]
}
